In the supplement of paper PMC9112550, “Optimization of the antimicrobial peptide Bac7 by deep mutational scanning” (BMC Biology, 2022):

Test system: Escherichia coli TOP10
Test: shrunken log2 fold change of peptide-encoding DNA abundance (4.5 h post-induction vs induction); higher = less antimicrobial activity (less host growth inhibition)
Details: time post-induction: 4.5 h; library: site-saturation at positions 5, 18, 19, 20
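Note: peptides expressed intracellularly from a pBAD plasmid library in pooled LB shake-flask culture, induced with 0.3% L-arabinose, DNA abundance read by NGS, three biological replicates, DESeq2 with apeglm shrinkage.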

Sequence | shrunken log2 fold change
RRIRYRPPRLPRPRPRPQQTPRP | 0.019
RRIRHRPPRLPRPRPRPLFEPRP | -0.135
RRIRQRPPRLPRPRPRPRDAPRP | 0.494
RRIRERPPRLPRPRPRPMALPRP | -0.0232
RRIRHRPPRLPRPRPRPQVYPRP | -0.21
RRIRYRPPRLPRPRPRPCATPRP | 0.0757
RRIRMRPPRLPRPRPRPVVMPRP | -0.0363
RRIRDRPPRLPRPRPRPLPTPRP | 0.358
RRIRMRPPRLPRPRPRPRQMPRP | 0.862
RRIRPRPPRLPRPRPRPSDPPRP | -0.184
RRIRVRPPRLPRPRPRPNMHPRP | -0.332
RRIRMRPPRLPRPRPRPFICPRP | 0.0468
RRIRCRPPRLPRPRPRPMWHPRP | -0.147
RRIRVRPPRLPRPRPRPQLLPRP | -0.0606
RRIRCRPPRLPRPRPRPWQSPRP | -0.127
RRIRWRPPRLPRPRPRPLMVPRP | -0.0319
RRIRMRPPRLPRPRPRPDKLPRP | 0.282
RRIRCRPPRLPRPRPRPNTPPRP | -0.345
RRIRYRPPRLPRPRPRPMWFPRP | 0.0169
RRIRYRPPRLPRPRPRPYSNPRP | -0.127
RRIRRRPPRLPRPRPRPHPNPRP | 0.246
RRIRPRPPRLPRPRPRPWMQPRP | 0.0452
RRIRQRPPRLPRPRPRPEREPRP | 0.0841
RRIRGRPPRLPRPRPRPYTCPRP | -0.0226
RRIRRRPPRLPRPRPRPAHLPRP | 0.178

Sequence | shrunken log2 fold change
RRIRWRPPRLPRPRPRPKYEPRP | -0.0182
RRIRLRPPRLPRPRPRPNYVPRP | -0.566
RRIRYRPPRLPRPRPRPGQQPRP | 0.0541
RRIRERPPRLPRPRPRPNELPRP | -0.0227
RRIRTRPPRLPRPRPRPATIPRP | -0.0446
RRIRNRPPRLPRPRPRPRVYPRP | -0.0128
RRIRCRPPRLPRPRPRPLMFPRP | -0.433
RRIRVRPPRLPRPRPRPTSQPRP | 0.00273
RRIRSRPPRLPRPRPRPSNLPRP | -0.193
RRIRDRPPRLPRPRPRPHGGPRP | 0.0317
RRIRSRPPRLPRPRPRPHIDPRP | -0.369
RRIRDRPPRLPRPRPRPSAMPRP | 0.36
RRIRTRPPRLPRPRPRPDCRPRP | 0.106
RRIRIRPPRLPRPRPRPPICPRP | -0.132
RRIRMRPPRLPRPRPRPKLSPRP | 0.982
RRIRARPPRLPRPRPRPREGPRP | 1.1
RRIRHRPPRLPRPRPRPANGPRP | -0.0837
RRIRVRPPRLPRPRPRPKRLPRP | 0.132
RRIRARPPRLPRPRPRPDCNPRP | 0.606
RRIRGRPPRLPRPRPRPTITPRP | 0.526
RRIRVRPPRLPRPRPRPLIQPRP | -0.351
RRIRVRPPRLPRPRPRPLIPPRP | -0.406
RRIRYRPPRLPRPRPRPRGVPRP | 0.0913
RRIRLRPPRLPRPRPRPGAIPRP | 0.0769
RRIRSRPPRLPRPRPRPGSNPRP | -0.00709

Sequence | shrunken log2 fold change
RRIRGRPPRLPRPRPRPGMMPRP | -0.0297
RRIRKRPPRLPRPRPRPHEEPRP | 0.0526
RRIRLRPPRLPRPRPRPAHDPRP | 0.189
RRIRFRPPRLPRPRPRPTPAPRP | 0.951
RRIRQRPPRLPRPRPRPMSEPRP | 0.0772
RRIRPRPPRLPRPRPRPAIGPRP | -0.0136
RRIRCRPPRLPRPRPRPSGCPRP | -0.221
RRIRERPPRLPRPRPRPTVNPRP | -0.129
RRIRLRPPRLPRPRPRPFATPRP | -0.0878
RRIRVRPPRLPRPRPRPRYTPRP | 0.0365
RRIRIRPPRLPRPRPRPREQPRP | 0.198
RRIRGRPPRLPRPRPRPFSMPRP | 0.169
RRIRGRPPRLPRPRPRPYCPPRP | -0.333
RRIRNRPPRLPRPRPRPTEIPRP | -0.319
RRIRYRPPRLPRPRPRPAKYPRP | -0.142
RRIRRRPPRLPRPRPRPWCFPRP | -0.0808
RRIRERPPRLPRPRPRPMPYPRP | -0.0164
RRIRHRPPRLPRPRPRPFTCPRP | -0.231
RRIRVRPPRLPRPRPRPRLIPRP | -0.293
RRIRPRPPRLPRPRPRPSTPPRP | -0.0766
RRIRNRPPRLPRPRPRPSLQPRP | -0.0436
RRIRTRPPRLPRPRPRPPNAPRP | 0.535
RRIRDRPPRLPRPRPRPQELPRP | -0.238
RRIRGRPPRLPRPRPRPTMLPRP | 0.52
RRIRIRPPRLPRPRPRPNGQPRP | -0.0848
